Results reported in paper PMC2810501.

Target: specific saturable binding sites for S100A8/A9 on cell membranes of blood MDSC (carboxylated N-glycan receptors)
Assay: radioligand binding

Kd: 0.0374 µM
Substance: S100A8/A9 heterodimer, purified, Na125I-labeled (from UniProt P27005 1-89; P31725 1-113) (complex)
